138 substances from the supplement of paper PMC12042874 can be followed below.

± gives the uncertainty stated by the source.

The nature of the data set: amyloid nucleation score (Sup35N fusion, yeast selection) (log enrichment); library NNK2; higher = more nucleation; inactive = no reads after selection. The method, boiled down:
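In psi-negative yeast, Sup35N fusions carrying peptides of 20 random codons were induced with 100 μM copper sulfate for 24 hours. The cells then grew 7 days at 30°C on medium lacking adenine and uracil, and plasmid inserts from input and output were Illumina-sequenced, excluding sequences with under 100 input reads. Nucleation score is the DiMSum log enrichment of output over input reads, centred on the mode score of non-aggregating sequences.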
DSSVSAPMSSFDRWTTHCVL came in with an amyloid nucleation score of 0.373 ± 0.43.
In the case of DSWFRPVLNFPCSRNANKSL, the amyloid nucleation score was found to be 1.95 ± 0.25.
For DSYGSFVKLMTVSVYMKGVF, the amyloid nucleation score result was “inactive”.
Consider DTALFYSNNVMTSKVGAQKS, for which the amyloid nucleation score is -0.003 ± 1.1.
The value for DTMRYLAGYLMACWPVEWSG was 0.685 ± 0.22; that for DVCMPIKKSITITTATVRVY was -0.545 ± 0.63; that for DVGSCVRGYTGQSKNLWTYG was 0.028 ± 0.79.
The substance DVRPDLNDKSRTVDSDVLLC had an amyloid nucleation score of -0.846 ± 0.78.
As to DVSVNRARFPREF, the amyloid nucleation score came to 1.1 ± 0.17.
Turning to DVVEDF, the amyloid nucleation score was -0.02 ± 0.49.
DVVKNLYSSGLGLSTCMLYI: the amyloid nucleation score is -0.95 ± 0.55.
Take DWVINS: the amyloid nucleation score is -0.462 ± 0.78.
DWWLLYNCRSRMMGIKADPL: the amyloid nucleation score result was “inactive”.
Consider DWWLNGLFP, for which the amyloid nucleation score entry is “inactive”.
Substance DYAIVSGVLLTQMQQLMCFV returned an amyloid nucleation score of 0.466 ± 0.33.
Regarding DYILLARYSRNVHCS, the amyloid nucleation score is -0.343 ± 0.37.
Substance DYITCQFYLTVFELSCCMSC came in with an amyloid nucleation score of 7.932 ± 0.047.
The value for DYLYCSAQFRHMRVQSPGNA was 0.885 ± 0.2.
Turning to DYMNGDKSKKGDYWIMSVNS, the amyloid nucleation score worked out at 0.154 ± 0.65.
The result for DYNFIQRNNCGALCKYAKTL reads -1.55 ± 0.62; that for DYVSGYRVGQFVMLLGRLRN, -0.205 ± 0.55.
EACVISNGISILL returned an amyloid nucleation score of -0.54 ± 0.35.
EAHILRLYMLSRLSGIVHMV displayed an amyloid nucleation score of 0.434 ± 0.56.
Substance EARVSDSVFGLVVVKTMCYV returned an amyloid nucleation score of 5.535 ± 0.043.
Take EASKGHISTVLWLGGVIS: the amyloid nucleation score is -0.352 ± 0.65.
As for ECRFKDTATRFRQSLRFYNM, the amyloid nucleation score entry is “inactive”.
For ECSRSINYLRLVLNLE, the amyloid nucleation score turned out to be 0.708 ± 0.34.
The substance ECVLMTGTMWSTSSALW yielded an amyloid nucleation score of 0.877 ± 0.53.
Substance EDEWMHLVRVQFQGKDRKAA returned an amyloid nucleation score of 0.92 ± 0.28.
EEMMFPFAFVFFICSFRNRL had an amyloid nucleation score of 2.9 ± 0.065.
EEMMSRYSLTVKML yielded an amyloid nucleation score of 0.391 ± 0.34.
Turning to EEVVVVWFIRDKDLALKLVV, the amyloid nucleation score result was “inactive”.
Turning to EEWSYVDSEPSIRFSRIQDV, the amyloid nucleation score is -0.516 ± 0.42.
In turn, EEWYHADVSCVHRKIPNATR came in with an amyloid nucleation score of 0.644 ± 0.81.
Substance EFCIPKNLRSW returned an amyloid nucleation score of 0.182 ± 0.22.
Substance EFIEYTSFYWWNLLRLGVHS showed an amyloid nucleation score of -0.61 ± 0.23.
EFIMTCAQVPRTFDVHSNRS came in with an amyloid nucleation score of 6.479 ± 0.054.
The substance EFKHSLIVASARRRNDFGYR gave an amyloid nucleation score of 0.224 ± 0.43.
The result for EFLRRD reads 0.055 ± 0.26; that for EFNLLRYSVETNIISEKKLV, 0.129 ± 0.54; that for EFQGVS, 0.343 ± 0.64.
As to EFQIMFVFHWT, the amyloid nucleation score result is “inactive”.
Turning to EFSFHSWQLVTSCQEECCLD, the amyloid nucleation score result was “inactive”.
Consider EGCMSFFKRSQYATDQDLGA, for which the amyloid nucleation score is -0.24 ± 0.39.
Consider EGFEFCWINNMDWSMPWVTN, for which the amyloid nucleation score came out at 5.08 ± 0.062.
For the substance EGFHGRMCHEHGKVLKAID, the amyloid nucleation score came to 0.178 ± 0.24.
EGLLHTYCICGFLVYHYMEV: the amyloid nucleation score came to 3.77 ± 0.054.
The value for EGNRNEVSFYVMFSAVPSGL was 9.221 ± 0.059.
As to EGRCNYTGHMFCRYLCKHYT, the amyloid nucleation score was -0.088 ± 1.1.
The substance EGTFGAPFVTSLLSLRFECV showed an amyloid nucleation score of -0.85 ± 0.63.
Regarding EIIYSQSDSVYGCGGY, the amyloid nucleation score entry is “inactive”.
With EKWLGLFKTYAESFDSCCLG, the amyloid nucleation score is -0.581 ± 0.29.
Turning to ELCTKAINVMN, the amyloid nucleation score came to 0.433 ± 0.48.
Regarding ELLEGYSLKEMYAFPVKWAV, the amyloid nucleation score came to 0.741 ± 0.6.
The result for ELLGSLCRNRVGTWTICNMS reads 0.52 ± 0.34.
With ELLGVQFRSRKYAATQNQWP, the amyloid nucleation score was determined as 2.03 ± 0.19.
For ELLSYRRSIKYCMGLEEPWA, the amyloid nucleation score was -0.119 ± 0.49.
In turn, ELSGGQTLLCRSVYLDVDRV yielded an amyloid nucleation score of 3.74 ± 0.064.
Consider ELWLYFFL, for which the amyloid nucleation score is -1.07 ± 0.34.
The substance ELWVSQTTNEFSFVVGHVVC returned an amyloid nucleation score of 0.025 ± 0.5.
The result for EMICVYSNFMKWVWSSFQTV reads -0.832 ± 0.33.
EMSRMASNISRMKVSRASKH came in with an amyloid nucleation score of 1.15 ± 0.38.
The value for ENFGVVMRWGYIRLLLQANW was “inactive”; that for ENGRYHFFKAEHWFCRLMMM was “inactive”.
ENGTLTIYMVAL gave an amyloid nucleation score of 4.39 ± 0.075.
For the substance ENSLVYI, the amyloid nucleation score result was “inactive”.
Take EQSNSNPSHKY: the amyloid nucleation score result is “inactive”.
The value for ERDGSIMCSWTVSEHKSCGY was “inactive”; that for ERMFNMIALVRRAGGERNRT was 4.43 ± 0.059; that for ERPWRRQRCAFKVSWVGADL was 0.632 ± 0.19.
On to ERYKCVYDNDRLMSLTSPDL, for which the amyloid nucleation score is -0.429 ± 0.29.
ERYLCVVDMEIKGRALRKRW yielded an amyloid nucleation score of -0.144 ± 0.44.
ESDMCFVWSIELVGLMFKLI had an amyloid nucleation score of -0.979 ± 0.24.
As for ESGCQGNSLKCVLSRCNGWR, the amyloid nucleation score was 3.45 ± 0.1.
The value for ESICAKWFMIDMNSTHWTGF was -0.614 ± 0.41.
Consider ESKIACCDMMLW, for which the amyloid nucleation score came out at 5.89 ± 0.062.
Regarding ESLGEVKGYTSDPMVLVCFE, the amyloid nucleation score was -0.167 ± 0.23.
The substance ESQWYVIDGAPFPTSGVLMS yielded an amyloid nucleation score of 0.013 ± 0.35.
As to ETSANDLEPNLSVHHSGFSR, the amyloid nucleation score is 0.078 ± 0.32.
Regarding EVGVV, the amyloid nucleation score worked out at 0.622 ± 0.18.
EVLRYGAVWMISRLVGLSLP registered an amyloid nucleation score of 0.754 ± 0.31.
EVPCWMTRSSMECNVDYWEG: the amyloid nucleation score was found to be 0.797 ± 0.2.
For EVSHAIYRWTLEKYCWNCHV, the amyloid nucleation score is 0.09 ± 0.24.
Regarding EVTILVGKGERLKRTYCSR, the amyloid nucleation score came to 0.329 ± 0.2.
In the case of EVVNWSR, the amyloid nucleation score was -0.367 ± 0.35.
The result for EVWYTGYVCLWMYIAWINID reads “inactive”; that for EWIWM, -0.129 ± 0.43; that for EWPMPWMFHRCSG, -0.138 ± 0.37.
As to EYFMATE, the amyloid nucleation score is -0.248 ± 0.35.
As for EYGVAT, the amyloid nucleation score worked out at 1.17 ± 0.18.
The result for EYRSDCMDYLGDVCWCPNIL reads “inactive”; that for FACLYKTMQQLMGIKMCVKA, 0.277 ± 0.4.
The substance FAGYECIE came in with an amyloid nucleation score of -0.881 ± 0.37.
FAKLKIIGSARKYK had an amyloid nucleation score of -1.19 ± 0.61.
FALREYGYLSSYYFCMGGPT came in with an amyloid nucleation score of 3.56 ± 0.094.
The value for FASRSCEFCEREY was 3.2 ± 0.085.
As for FASVLLCSIRRALGRVVRPL, the amyloid nucleation score is 0.144 ± 0.55.
Turning to FASYRVY, the amyloid nucleation score stood at 0.305 ± 1.
FAVNDCILCCRRSHWVLPYW gave an amyloid nucleation score of -0.334 ± 0.63.
In turn, FAVTGFTWYMKIRCASIPLV gave an amyloid nucleation score of 1.65 ± 0.21.
With FCAMGGPSRGLVNRWFGS, the amyloid nucleation score is -0.746 ± 0.41.
For the substance FCGDILSVT, the amyloid nucleation score amounted to 0.695 ± 0.66.
The value for FCGFNDPGRD was “inactive”.
The result for FCKSVHKVHGHNVWCTLCAG reads 1.11 ± 0.18.
FCKYANSGGCNHSMSDAV: the amyloid nucleation score is -0.761 ± 1.1.
Take FCLNATKAWFVLGVMYLDHW: the amyloid nucleation score was -0.805 ± 0.35.
FCNFGFIRNRSDDIGVSRGV came in with an amyloid nucleation score of -1.07 ± 0.47.
The result for FCPFWDSWWGKPCRPAIDSA reads 0.683 ± 0.74.
The value for FCPVHSGISS was -0.578 ± 0.79.
On to FCRETLRTRKAETLGTVNKE, for which the amyloid nucleation score is -0.937 ± 0.78.
The substance FCREWDRSRQKG yielded an amyloid nucleation score of 0.508 ± 0.25.
The result for FCRGIHVTSIITTIDWYYSL reads 0.36 ± 0.62; that for FCRLLPSLCTTNLK, -0.663 ± 0.76; that for FCSHVGLVYCTYIMMRVSMR, 5.501 ± 0.034.
For FCSSSVIYQKKLA, the amyloid nucleation score was -0.782 ± 0.24.
The value for FCTLCFSLCQ was 1.82 ± 0.23; that for FCTNSYSFMDGTSCWAELRA was 0.594 ± 0.47; that for FCVISKGRHVSMRTTSGFLE was -0.834 ± 0.54.
Substance FCVLIGGCFFGNSK came in with an amyloid nucleation score of 6.157 ± 0.038.
FDCGGCKNMGF: the amyloid nucleation score was -1.74 ± 0.62.
In the case of FDDRMCLCTIKQSK, the amyloid nucleation score is -1 ± 0.78.
For FDHMWLSGQVQWFLNYTTSL, the amyloid nucleation score entry was “inactive”.
For FDLCCMKYHSYHMQFI, the amyloid nucleation score was -0.214 ± 1.
The substance FDPIRWLLNYIFMASTLYVE showed an amyloid nucleation score of -0.804 ± 0.44.
FDRRVDV: the amyloid nucleation score was -0.076 ± 0.29.
On to FELIFELLLKKCALI, for which the amyloid nucleation score stood at 0.032 ± 0.54.
Take FENIDGWRLFIIARRRAIGG: the amyloid nucleation score was -1 ± 1.
FESRFYHSVLTIVTLFTYPA: the amyloid nucleation score was -0.025 ± 1.1.
The substance FFCRG yielded an amyloid nucleation score of 3.26 ± 0.084.
For the substance FFDIVIAERLTVLHVSVVSK, the amyloid nucleation score turned out to be 4.59 ± 0.074.
The result for FFEFRCWVMKGFWPLRMKDM reads 0.414 ± 0.65; that for FFFVPSFDTLEHTLRVGLLR, “inactive”.
Take FFIIGDCGVLSCPAGGQLWS: the amyloid nucleation score is 7.177 ± 0.037.
FFIQLSIPERFTVRVLIRRR: the amyloid nucleation score result was “inactive”.
Turning to FFIWLPYRSTTINRISPCWG, the amyloid nucleation score is -1.94 ± 0.54.
The value for FFKISQSTTTEQLVYSCYSS was 3.02 ± 0.095; that for FFMNNALFRGWG was 2.97 ± 0.15; that for FFQFTTDSHCND was 0.654 ± 0.8.
